We go through three molecules from US20170233480A1 (DEVELOPMENT CENTER FOR BIOTECHNOLOGY, published 2017).

The target in test [1] is T1, human VEGFR-2 (domains 1 to 7) (human, UniProt P35968 20-764).
T1 construct: The immunogen was VEGFR2-Fc-His and panning used VEGFR2-His; also called R2 D1-7; KDR
The experiment in a line: kinetic analysis with Rmax in RU, VEGFR-2 (domains 1 to 7) as analyte; method not named.

The target in a further test is mouse VEGFR-2 (mouse, UniProt P35918 20-762). The test can be described thus: ELISA, plate coated with mouse VEGFR-2, HRP-anti-human IgG, OD450-650; bar chart of two runs (1st, 2nd); antibody concentration not given. As for the experimental part:
(§1) An ELSA plate was coated with 100 μL per well of human VEGFR-2, mouse VEGFR2, human VEGFR1 or human VEGFR3 overnight at 4° C., and then rinsed 3 times with PBS and blocked with 300 μL per well of 5% MPBS for 2 hr at 37° C. The wells were rinsed 3 times with PBS, and 100 μL of anti-VEGFR2 antibody, 2 fold serial dilutions, was added and incubated for 90 min at 37° C. The test solution was discarded and washed 3 times with PBS. Appropriate dilution of HRP-anti-Human IgG antibody in 5% MPBS (1:10000) was added and incubated for 60 min at 37° C., and the wells were washed 3 times with PBS. The wells were developed with 100 μL of substrate solution TMB and the reactions were terminated by adding 50 μL of 1 M sulfuric acid. The color turned yellow and the OD at 650 nm and at 450 nm was assayed.
On the technique in general: ELISA stands for enzyme-linked immunosorbent assay.

A further test deals with T2, human VEGFR-1 (human, UniProt P17948 27-758, limits assumed).
T2 construct: also called flt-1
The experiment in a line: ELISA, plate coated with hVEGFR1 (0.1 µg/mL), antibody titration, OD450-650. As for the experimental part: as §1

Another test has as its target T3, human VEGFR-3 (human, UniProt P35916 25-775, limits assumed).
T3 construct: also called flt-4
T3 sequence (looked up): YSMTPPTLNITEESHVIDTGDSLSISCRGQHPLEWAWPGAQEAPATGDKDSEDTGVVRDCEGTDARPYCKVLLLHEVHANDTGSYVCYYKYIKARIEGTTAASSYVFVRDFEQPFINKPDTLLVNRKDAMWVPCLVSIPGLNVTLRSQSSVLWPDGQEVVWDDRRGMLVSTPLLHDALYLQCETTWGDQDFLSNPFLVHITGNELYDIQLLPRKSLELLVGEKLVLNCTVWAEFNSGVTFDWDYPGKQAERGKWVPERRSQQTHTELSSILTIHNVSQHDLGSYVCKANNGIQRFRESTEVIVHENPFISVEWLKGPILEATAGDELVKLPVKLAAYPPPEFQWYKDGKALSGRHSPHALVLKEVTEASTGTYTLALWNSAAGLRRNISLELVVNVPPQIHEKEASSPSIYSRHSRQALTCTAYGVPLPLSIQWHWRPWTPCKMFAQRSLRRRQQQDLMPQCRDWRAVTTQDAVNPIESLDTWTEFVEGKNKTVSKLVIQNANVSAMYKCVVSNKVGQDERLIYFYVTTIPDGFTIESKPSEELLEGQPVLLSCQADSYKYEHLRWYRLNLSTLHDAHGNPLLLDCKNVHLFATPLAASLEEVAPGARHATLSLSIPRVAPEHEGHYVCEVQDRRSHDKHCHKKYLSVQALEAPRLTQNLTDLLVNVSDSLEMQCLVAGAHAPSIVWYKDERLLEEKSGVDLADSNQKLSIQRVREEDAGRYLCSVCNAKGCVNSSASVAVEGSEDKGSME
The experiment in a line: ELISA, plate coated with hVEGFR3 (0.1 µg/mL), antibody titration, OD450-650. As for the experimental part: as §1

Test [2] deals with T1, human VEGFR-2 (domains 1 to 7). The test can be described thus: ELISA on VEGFR-2 D1-7 and point mutants mut.1 to mut.10, antibody titration 6.86E-05 to 0.15 ug/ml, OD450.
Test [3] has the same target. The test can be described thus: ELISA and BIAcore; no numbers given.

T1 sequence (P35968 20-764 Q472H limits assumed): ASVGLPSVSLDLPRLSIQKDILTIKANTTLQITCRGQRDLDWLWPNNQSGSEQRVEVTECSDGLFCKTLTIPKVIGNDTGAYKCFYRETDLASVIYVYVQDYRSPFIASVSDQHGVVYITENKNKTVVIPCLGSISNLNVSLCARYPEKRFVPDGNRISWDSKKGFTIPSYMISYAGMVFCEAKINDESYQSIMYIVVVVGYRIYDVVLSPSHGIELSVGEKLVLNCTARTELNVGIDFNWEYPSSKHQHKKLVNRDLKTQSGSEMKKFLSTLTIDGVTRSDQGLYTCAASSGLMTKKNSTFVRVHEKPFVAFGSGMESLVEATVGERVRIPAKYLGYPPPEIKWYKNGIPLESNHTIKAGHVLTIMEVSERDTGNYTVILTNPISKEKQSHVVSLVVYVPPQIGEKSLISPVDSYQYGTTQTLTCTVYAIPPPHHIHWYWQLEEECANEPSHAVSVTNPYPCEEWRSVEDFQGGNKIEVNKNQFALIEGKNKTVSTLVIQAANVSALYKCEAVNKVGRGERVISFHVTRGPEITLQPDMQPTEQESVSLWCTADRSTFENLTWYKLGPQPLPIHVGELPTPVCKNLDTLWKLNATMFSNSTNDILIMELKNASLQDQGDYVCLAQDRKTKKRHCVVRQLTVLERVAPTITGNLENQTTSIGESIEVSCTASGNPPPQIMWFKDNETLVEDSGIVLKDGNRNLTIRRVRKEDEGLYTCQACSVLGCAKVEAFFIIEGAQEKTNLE
Chain of mouse VEGFR-2 (P35918 20-762 limits assumed): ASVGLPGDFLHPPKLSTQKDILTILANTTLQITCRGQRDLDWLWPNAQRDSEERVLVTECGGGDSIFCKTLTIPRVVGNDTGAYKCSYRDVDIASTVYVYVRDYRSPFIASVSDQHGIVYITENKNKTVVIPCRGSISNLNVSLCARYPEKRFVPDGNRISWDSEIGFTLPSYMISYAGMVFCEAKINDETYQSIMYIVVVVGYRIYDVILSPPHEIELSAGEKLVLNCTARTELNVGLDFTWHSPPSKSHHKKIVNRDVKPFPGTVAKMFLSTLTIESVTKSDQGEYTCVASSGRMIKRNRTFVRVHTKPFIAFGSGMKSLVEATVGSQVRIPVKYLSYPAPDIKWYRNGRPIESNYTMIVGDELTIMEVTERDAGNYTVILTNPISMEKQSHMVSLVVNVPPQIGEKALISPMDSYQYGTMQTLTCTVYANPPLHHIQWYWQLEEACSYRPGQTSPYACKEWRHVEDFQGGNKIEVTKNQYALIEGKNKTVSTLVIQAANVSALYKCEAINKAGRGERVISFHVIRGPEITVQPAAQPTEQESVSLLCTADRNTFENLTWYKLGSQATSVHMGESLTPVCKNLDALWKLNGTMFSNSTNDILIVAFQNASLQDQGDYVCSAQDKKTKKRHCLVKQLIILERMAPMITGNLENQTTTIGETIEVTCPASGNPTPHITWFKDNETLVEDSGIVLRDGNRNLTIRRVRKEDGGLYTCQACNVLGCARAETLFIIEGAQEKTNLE
T2 sequence (P17948 27-758 limits assumed): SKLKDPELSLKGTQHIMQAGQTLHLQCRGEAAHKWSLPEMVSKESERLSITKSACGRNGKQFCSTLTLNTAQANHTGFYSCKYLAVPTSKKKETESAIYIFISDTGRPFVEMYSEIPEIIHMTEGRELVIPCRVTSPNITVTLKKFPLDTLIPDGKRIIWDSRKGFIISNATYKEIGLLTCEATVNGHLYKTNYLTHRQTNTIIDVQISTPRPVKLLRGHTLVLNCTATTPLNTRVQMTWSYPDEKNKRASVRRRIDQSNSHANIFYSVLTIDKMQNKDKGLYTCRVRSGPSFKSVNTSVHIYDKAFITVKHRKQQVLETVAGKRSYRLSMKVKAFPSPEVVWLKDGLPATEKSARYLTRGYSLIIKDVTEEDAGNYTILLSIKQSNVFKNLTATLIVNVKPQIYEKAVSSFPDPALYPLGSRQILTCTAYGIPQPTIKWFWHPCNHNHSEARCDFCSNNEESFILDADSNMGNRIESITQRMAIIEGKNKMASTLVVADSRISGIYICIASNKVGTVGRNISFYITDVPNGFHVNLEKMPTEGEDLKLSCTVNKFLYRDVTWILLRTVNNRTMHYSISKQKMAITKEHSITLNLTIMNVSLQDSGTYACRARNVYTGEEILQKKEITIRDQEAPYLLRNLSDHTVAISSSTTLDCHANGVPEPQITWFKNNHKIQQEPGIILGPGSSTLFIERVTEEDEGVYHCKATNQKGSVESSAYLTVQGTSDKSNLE

B1: 12A6 (antibody, V domains shown)
VH: QVQLQQSGPELVKPGASVKVSCKASGYSFTDYSMYWVKQSHGKSLEWIGYIDPYNDDTSYKQKFKGKATLTVDKSSSTAFMHLNSLTSEDSAVYYCAKGYADAMDYWGQGTSVTVSS
VL: DIQMIQSPSSLSASLGDTITITCHASQNINVWLSWYQQKPGNIPKLLIYKASNLHTGVPSRFSGSGSGTGFTLTISSLQPEDIATYYCQQGQSYPLTFGAGTKLELKR
notes: Expressed as a full-length antibody in FreeStyle 293 cells and detected with anti-human IgG
Usually Kd stands for the equilibrium constant for the complex coming apart. A higher Kd goes with a looser complex. With B1, binding in test [1] was characterised by a dissociation constant (Kd) of 4.6 nM. The binding result with mouse VEGFR-2 is reported as “no binding”.

B2: 322A6 (antibody, V domains shown)
VH: EVQLQQSGPQLVRPGASAKISCKASGYAFTTYWMHWVKQRPGQGLEWIGMIDFSDSETKLNQRFKGKATLTVDKSSSTAYMQLSSPTSEDSAVYYCARDVRGNFDVWGAGTTVTVSS
VL: DIVLTQSPASLAVSLGQRATISCRASKSVSTSGYSYMHWYQQKPGQPPKLLIYLASNLESGVPARFSGSGSGTDFTLNIHPVEEEDAATYYCQHSRELPWTFGGGTKLEIKR
notes: Expressed as a full-length antibody in FreeStyle 293 cells from mouse-derived VH and VL; It was detected with anti-human IgG and anti-human kappa; also called 322A6 (45); c45
Broadly, the EC50 (read off the curve) is the concentration giving half of the maximal effect. Low readings indicate a more potent agent, high ones a less potent agent. B2: the values for the binding result in the test with human VEGFR-1, in the test with human VEGFR-3 and in the test with mouse VEGFR-2 were “no binding (tested: 20 µg/mL (about 1.3e-7 M))”, “no binding (tested: about 1.3e-7 M)” and “binds”, respectively. Further, the Kd in test [1] was determined as 0.673 nM. The “EC50 (read off the curve)” value in test [2] is around 5 ng/mL.

B3: Hu322B1HdH (antibody, V domains shown)
VH: QVQLVQSGAEVKKPGASVKVSCKASGYAFTTYWMHWVRQAPGQGLEWIGMIDFSDSETKLNQRFKGKATLTVDKSTSTAYMELSSLRSEDTAVYYCARDVRGNFDVWGQGTLVTVSS
VL: DIQMTQSPSSLSASVGDRVTITCRASKSVSTSGYSYMHWYQQKPGKAPKLLIYLASNLESGVPSRFSGSGSGTDFTLTISSLQPEDFATYYCQHSRELPWTFGQGTKVEIKR
notes: Humanized 322A6; The expression vector encodes the human kappa light-chain and human IgG1 C regions; also called 322A6(HuB1-Hd); combination clone of heavy chain (HuB1) and light chain (Hd) with 7 amino acid back mutation (7+0)
Regarding B3, the binding result in test [3] was “binds”.
